Patent US20100291106A1 (Novartis, published 2010)
Read-outs that look alike come from different tables or passages of the source. One block for each binder: values may come before it.

Assays:
[1] = target: T1, cynomolgus complement C3b protein (cynomolgus monkey (Macaca fascicularis)); assay: SPR (Biacore T100), C3b captured by anti-C3d antibody, IgG as analyte, 1:1 model
T1 construct: also called cyno C3b; cynoC3b

[2] = target: T2, human complement C3b protein (human, UniProt P01024 23-667; P01024 749-1663); assay: as above
T2 construct: Purified plasma C3b (Complement Technology, Quidel); Depending on the assay it was captured by an anti-C3d antibody, coated, biotinylated or coupled to beads; also called human C3b; huC3b
T2 sequence (P01024 23-667 P314L, chain 1 of 2): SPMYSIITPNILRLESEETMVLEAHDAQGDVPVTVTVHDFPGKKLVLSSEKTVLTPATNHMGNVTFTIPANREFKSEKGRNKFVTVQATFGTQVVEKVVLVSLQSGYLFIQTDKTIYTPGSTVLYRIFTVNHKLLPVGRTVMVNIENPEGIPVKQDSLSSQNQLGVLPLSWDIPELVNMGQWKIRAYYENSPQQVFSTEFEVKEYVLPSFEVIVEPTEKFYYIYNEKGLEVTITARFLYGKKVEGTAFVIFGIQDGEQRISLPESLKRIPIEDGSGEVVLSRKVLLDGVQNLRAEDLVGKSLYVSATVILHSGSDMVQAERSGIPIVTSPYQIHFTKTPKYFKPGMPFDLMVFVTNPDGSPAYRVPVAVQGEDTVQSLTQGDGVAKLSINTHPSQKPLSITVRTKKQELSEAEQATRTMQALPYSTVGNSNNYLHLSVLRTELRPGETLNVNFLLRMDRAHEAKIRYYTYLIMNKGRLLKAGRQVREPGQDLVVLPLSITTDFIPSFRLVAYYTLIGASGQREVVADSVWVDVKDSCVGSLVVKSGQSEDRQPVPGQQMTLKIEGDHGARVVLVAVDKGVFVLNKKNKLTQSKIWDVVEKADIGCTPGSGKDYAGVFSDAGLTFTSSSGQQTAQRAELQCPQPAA
T2 sequence (P01024 749-1663, chain 2 of 2): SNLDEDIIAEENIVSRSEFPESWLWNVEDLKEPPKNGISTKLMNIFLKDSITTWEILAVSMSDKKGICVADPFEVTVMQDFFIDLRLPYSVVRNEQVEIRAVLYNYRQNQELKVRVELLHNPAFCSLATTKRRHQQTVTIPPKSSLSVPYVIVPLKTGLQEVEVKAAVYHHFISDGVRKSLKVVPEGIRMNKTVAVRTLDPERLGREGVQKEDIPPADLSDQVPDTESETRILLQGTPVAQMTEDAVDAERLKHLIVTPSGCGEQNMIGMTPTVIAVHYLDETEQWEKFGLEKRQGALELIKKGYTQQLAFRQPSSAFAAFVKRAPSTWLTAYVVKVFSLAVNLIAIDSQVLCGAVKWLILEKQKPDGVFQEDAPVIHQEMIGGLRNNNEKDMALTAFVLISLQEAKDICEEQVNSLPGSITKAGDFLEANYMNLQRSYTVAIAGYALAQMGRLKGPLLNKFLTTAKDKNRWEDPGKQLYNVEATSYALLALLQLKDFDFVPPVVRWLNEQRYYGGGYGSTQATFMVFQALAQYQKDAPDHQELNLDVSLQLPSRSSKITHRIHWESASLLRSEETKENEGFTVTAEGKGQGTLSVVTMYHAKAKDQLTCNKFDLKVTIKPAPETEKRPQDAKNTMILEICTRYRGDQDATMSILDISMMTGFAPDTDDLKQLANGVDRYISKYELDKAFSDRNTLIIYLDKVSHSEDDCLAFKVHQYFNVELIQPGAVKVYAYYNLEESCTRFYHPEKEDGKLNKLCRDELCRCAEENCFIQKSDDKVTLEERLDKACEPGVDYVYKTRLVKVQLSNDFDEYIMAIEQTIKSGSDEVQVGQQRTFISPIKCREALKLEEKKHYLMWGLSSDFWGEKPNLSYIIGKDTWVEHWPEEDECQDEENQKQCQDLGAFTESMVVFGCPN

[3] = target: T2, human complement C3b protein; assay: AlphaScreen bead proximity, C3b-Acceptor beads pre-incubated with antibody, then biotinylated fB(D24G/N260D) and SA-Donor beads; blocked ligand: fB [A]
Method: (§1) In brief, purified C3b and fP were conjugated to unconjugated acceptor or donor beads (PerkinElmer) using AminoLink Reductant (Pierce) during a 48 h incubation at room temperature. Beads were quenched using Carboxymethoxylamine Hemihydrochloride (Aldrich), and purified by centrifugation at 13000 rpm and three washes with 0.1M TBST. Purified fB(D24G/N260D) and fH were biotinylated during a 30 min incubation with 20-fold molar excess of NHS-Chromogenic-biotin (Pierce) at room temperature, and purified using Zeba 0.5 ml desalting columns (Pierce).
(§2) For C3b-C3b and C3b-fP proximity, Fabs or IgGs respectively were pre-incubated with C3b-Acceptor beads (20 μg/ml) for 60 min at room temperature. C3b-Donor beads or fP-Donor beads (20 μg/ml) were then added, and the plate was incubated overnight at room temperature before reading. For C3b-fB and C3b-fH proximity, antibodies were pre-incubated with C3b-Acceptor beads (20 μg/ml) for 60 minutes at room temperature. Biotinylated fB(D24G/N260D) or fH were then added, and incubated for 60 minutes at room temperature. SA-Donor beads were then added (20 μg/ml) and the plate was incubated overnight at room temperature before reading. Plates were read on the BMG Pherastar (ex=680, em=520-620).

[4] = target: T2, human complement C3b protein; assay: ELISA, C3b or C3 captured by anti-C3d antibody
Method: (§3) The C3b antibodies were examined to determine whether they were selective for binding to C3b relative to the C3b precursor C3. Briefly, binding selectivity for C3b was determined by performing the following steps. Coat Maxisorp plate Nunc (442404) with anti-C3d rabbit monoclonal (abcam 17453) at 2 μg/ml in Carbonate Buffer at 100 μl/well. Seal plates and incubate at 4° C. overnight. Aspirate plates and wash 3 times with PBS/0.5% Tween 20. Block plates with Diluent (PBS, 4% BSA Fraction V (Fisher ICN16006980), 0.1% Tween 20 (Sigma P1379), 0.1% Triton X-100 (Sigma P234729)) and incubate for 2 h at room temperature or overnight at 4° C. Then wash plates once with PBS/0.5% Tween 20. Dilute purified C3b (complement technologies A114 lot 21) and C3 (complement technologies A113c) at 1 μg/ml in diluent and plate 100 μl per well. Incubate for 1 h at room temperature. Then wash 3 times with PBS/0.5% Tween 20.
(§4) Dilute Fabs at 100 nM and subsequent dilutions (or higher concentration) in diluent and plate 100 μl per well. Incubate at room temperature for 1 h. Wash plates 3 times with PBS/0.5% Tween 20. Add 100 μl/well of anti-Histidine-HRP monoclonal detection antibody at 1:400 in diluent and incubate at room temperature for 1 h. Then wash 4 times with PBS/0.5% Tween 20. Add 100 μl of TMB substrate (Pierce 34028) and incubate at room temperature for up to 5 min. Add 50 μl of Stop solution (2N Sulfuric Acid) to each well and read plate at 450 nm and correct for plastic reading at 570 nm.

[5] = target: T2, human complement C3b protein; assay: cell-based or functional assay
[6] = target: T2, human complement C3b protein; assay: AlphaScreen bead proximity, C3b-Acceptor beads pre-incubated with antibody, then biotinylated fH and SA-Donor beads; blocked ligand: fH [C]
Method: as §1, §2

human C3d [7] = target: T3, human C3d (human, UniProt P01024 1002-1303); assay: C3d binding ELISA, IgG titrated from about 0.006 to 100 nM
T3 construct: domain: C3d
T3 sequence (P01024 1002-1303 limits assumed): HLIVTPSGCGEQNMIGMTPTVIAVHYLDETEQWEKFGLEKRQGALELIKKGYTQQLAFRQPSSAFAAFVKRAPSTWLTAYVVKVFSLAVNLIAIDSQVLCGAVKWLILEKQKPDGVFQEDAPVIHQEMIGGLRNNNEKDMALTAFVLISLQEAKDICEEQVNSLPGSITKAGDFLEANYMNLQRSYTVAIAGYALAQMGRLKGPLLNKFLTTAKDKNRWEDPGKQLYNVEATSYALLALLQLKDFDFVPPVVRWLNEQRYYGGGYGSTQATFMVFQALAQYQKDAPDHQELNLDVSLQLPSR

[8] = target: T2, human complement C3b protein; assay: AlphaScreen bead proximity, C3b-Acceptor beads pre-incubated with antibody, then C3b-Donor beads; inhibition of C3b-C3b dimer formation; unit from the axis [Antibody] nM; value lies above the highest point shown (about 800 nM) [D]
Method: as §1, §2

[9] = target: T1, cynomolgus complement C3b protein; assay: cell-based or functional assay
[10] = target: T2, human complement C3b protein; assay: cell-based or functional assay; remark: listed apart in the source
human C3d [11] = target: T3, human C3d; assay: cross reactivity, ELISA on C3d, anti-His detection
human C5 = target: T4, human C5 (human, UniProt P01031 19-673; P01031 678-1676); assay: cross reactivity, capture ELISA with anti-C5 capture antibody, anti-His detection
T4 construct: Captured by an anti-C5 antibody in the ELISA
T4 sequence (P01031 19-673 limits assumed, chain 1 of 2): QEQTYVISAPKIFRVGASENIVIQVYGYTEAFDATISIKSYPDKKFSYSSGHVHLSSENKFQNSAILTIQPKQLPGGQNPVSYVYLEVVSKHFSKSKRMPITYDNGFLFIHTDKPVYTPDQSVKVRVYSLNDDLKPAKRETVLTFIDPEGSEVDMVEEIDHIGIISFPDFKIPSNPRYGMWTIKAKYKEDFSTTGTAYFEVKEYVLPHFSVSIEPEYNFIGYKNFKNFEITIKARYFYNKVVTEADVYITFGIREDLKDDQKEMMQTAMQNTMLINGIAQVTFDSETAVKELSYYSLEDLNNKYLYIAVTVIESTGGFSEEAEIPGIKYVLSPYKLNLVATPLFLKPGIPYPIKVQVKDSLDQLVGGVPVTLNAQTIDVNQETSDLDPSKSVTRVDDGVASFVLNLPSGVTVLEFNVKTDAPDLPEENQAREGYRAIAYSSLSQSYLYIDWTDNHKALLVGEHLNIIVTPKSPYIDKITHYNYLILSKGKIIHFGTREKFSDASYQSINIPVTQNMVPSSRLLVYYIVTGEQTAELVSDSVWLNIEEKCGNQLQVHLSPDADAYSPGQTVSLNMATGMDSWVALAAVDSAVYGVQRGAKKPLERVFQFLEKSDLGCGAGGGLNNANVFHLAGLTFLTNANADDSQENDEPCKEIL
T4 sequence (P01031 678-1676 limits assumed, chain 2 of 2): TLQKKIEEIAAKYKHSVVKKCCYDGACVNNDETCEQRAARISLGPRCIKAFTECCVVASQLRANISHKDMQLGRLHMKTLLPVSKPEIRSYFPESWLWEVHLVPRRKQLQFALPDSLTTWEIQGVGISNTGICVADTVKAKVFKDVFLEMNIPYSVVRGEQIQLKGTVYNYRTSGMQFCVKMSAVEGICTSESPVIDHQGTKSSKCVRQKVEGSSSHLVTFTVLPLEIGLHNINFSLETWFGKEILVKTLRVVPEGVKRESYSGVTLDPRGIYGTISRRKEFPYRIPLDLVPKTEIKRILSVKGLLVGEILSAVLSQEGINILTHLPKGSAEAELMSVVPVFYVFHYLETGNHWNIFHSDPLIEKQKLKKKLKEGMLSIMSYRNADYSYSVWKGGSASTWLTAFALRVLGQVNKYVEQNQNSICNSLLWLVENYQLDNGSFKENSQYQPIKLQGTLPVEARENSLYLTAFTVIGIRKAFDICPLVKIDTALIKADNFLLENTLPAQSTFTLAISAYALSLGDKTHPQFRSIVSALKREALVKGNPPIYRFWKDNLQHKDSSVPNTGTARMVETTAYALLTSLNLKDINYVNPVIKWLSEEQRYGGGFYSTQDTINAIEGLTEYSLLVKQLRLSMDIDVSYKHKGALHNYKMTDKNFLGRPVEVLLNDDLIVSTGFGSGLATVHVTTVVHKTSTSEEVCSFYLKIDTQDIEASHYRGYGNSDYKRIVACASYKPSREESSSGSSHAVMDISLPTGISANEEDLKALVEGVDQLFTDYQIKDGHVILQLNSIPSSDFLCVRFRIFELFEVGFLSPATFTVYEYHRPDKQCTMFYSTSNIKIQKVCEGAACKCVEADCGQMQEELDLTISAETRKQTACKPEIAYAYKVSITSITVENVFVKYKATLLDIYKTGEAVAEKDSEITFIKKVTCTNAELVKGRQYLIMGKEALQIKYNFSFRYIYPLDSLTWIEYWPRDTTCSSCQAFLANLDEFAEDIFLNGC

[12] = target: T1, cynomolgus complement C3b protein; assay: SPR (Biacore), C3b captured by anti-C3d antibody, Fab as analyte
[13] = target: T2, human complement C3b protein; assay: as above
[14] = target: T1, cynomolgus complement C3b protein; assay: solution equilibrium titration (SET), ECL detection, Fab
[15] = target: T2, human complement C3b protein; assay: as above
[16] = target: T2, human complement C3b protein; assay: AlphaScreen bead proximity, C3b-Acceptor beads pre-incubated with antibody, then C3b-Donor beads; inhibition of C3b-C3b dimer formation; unit from the axis [Antibody] nM [D]
Method: as §1, §2

[17] = target: T2, human complement C3b protein; assay: ELISA, C3b captured on coated anti-C3d antibody, antibody titrated (axis: IgG concentration)
Method: as §3
as §4, with “Add 100 μl of TMB substrate (Pierce 34028) and incubate at room temperature for up to 5 min.” left out

[18] = target: T2, human complement C3b protein

- Kd [1]: 0.202 nM
- koff [1]: 0.00029 s⁻¹
- kon [1]: 1.45e+06 M⁻¹ s⁻¹
- Kd [2]: 0.00288 nM
- koff [2]: 1.02e-06 s⁻¹
- kon [2]: 353000 M⁻¹ s⁻¹
- IC50 (read off the curve) [3]: ~0.05 nM
- fold binding selectivity for C3b over C3 [4]: > 1000 fold
- MAC deposition on zymosan, IC50 [5]: ≤ 5 nM
- IC50 (read off the curve) [6]: ~0.02 nM
- binding result (human C3d [7]): no binding (tested: 100 nM)
- EC50 [8]: 2360 nM
B1: MOR09675 IgG (antibody, V domains shown)
VH: EVQLVQSGAEVKKPGASVKVSCKASGYTFTGYYINWVRQAPGQGLEWMGIISPNQGTTGYAQKFQGRVTMTRDTSISTAYMELSSLRSEDTAVYYCARGNYDHLDYWGQGTLVTVSS
VL: DIQMTQSPSSLSASVGDRVTITCRASQGISNYLNWYQQKPGKAPKLLIYDASTLQSGVPSRFSGSGSGTDFTLTISSLQPEDFATYYCQQDWHTLPVTFGQGTKVEIKR
notes: Germlined human IgG1 with leucines 234 and 235 changed to alanines, kappa; also called antibody 9675
- hemolysis of rabbit red blood cells, 10% human or cynomolgus serum, IC50 [5]: ≤ 50 nM
- inhibition of C3a and C5a generation during hemolysis, IC50 [5]: ≤ 50 nM

- C3b Dep (nM), cyno serum, IC50 [9]: 39 nM
- HA (nM), 10% cyno serum, IC50 [9]: 64 nM
- MAC Dep (nM), cyno serum, IC50 [9]: 18 nM
- C3a (nM), human, inhibition of C3a generation [10]: 66 nM
- C3b Dep (nM), human serum, IC50 [10]: 20 nM
- C5a (nM), human, inhibition of C5a generation [10]: 34 nM
- HA (nM), 10% human serum, IC50 [10]: 63 nM
- MAC Dep (nM), human serum, IC50 [10]: 4 nM
- binding result (human C3d [11]): no binding
- binding result (human C5): no binding
- Kd [12]: 0.07 nM
- Kd [13]: 0.114 nM
- Kd [14]: 0.006 nM
- Kd [15]: 0.018 nM
B2: MOR9610 Fab format (Fab, V domains shown)
VH: EVQLVQSGAEVKKPGSSVKVSCKASGGTFSSYTFSWVRQAPGQGLEWMGNILPIFGDANYAQKFQGRVTITADESTSTAYMELSSLRSEDTAVYYCARNKGAFYYMSTYPSLDVWGQGTLVTVSS
VL: DIQMTQSPSSLSASVGDRVTITCRASQNINYYLNWYQQKPGKAPKLLIYDAFSLQSGVPSRFSGSGSGTDFTLTISSLQPEDFATYYCQQSIAVPPFTFGQGTKVEIK

- EC50 [16]: 300 nM
- EC50 (read off the curve) [17]: ~0.08 nM
- Kd [1]: 0.0102 nM
- koff [1]: 4.67e-05 s⁻¹
- kon [1]: 4.57e+06 M⁻¹ s⁻¹
- Kd [2]: 0.0001 nM
- koff [2]: 3.21e-07 s⁻¹
- kon [2]: 3.21e+06 M⁻¹ s⁻¹
- IC50 (read off the curve) [3]: ~0.05 nM
- fold binding selectivity for C3b over C3 [18]: 1000 fold
- MAC deposition on zymosan, IC50 [5]: ≤ 5 nM
- IC50 (read off the curve) [6]: ~0.04 nM
- binding result (human C3d [7]): no binding (tested: 100 nM)
B3: MOR09556 IgG (antibody, V domains shown)
VH: EVQLVESGGGLVQPGGSLRLSCAASGFTFSSYWMTWVRQAPGKGLEWVSSIKIKPDGYAASVKGRFTISRDNSKNTLYLQMNSLRAEDTAVYYCARLFYQYFARMDYWGQGTLVTVSS
VL: DIQMTQSPSSLSASVGDRVTITCRASQDISNYLNWYQQKPGKAPKLLIYAASNLQSGVPSRFSGSGSGTDFTLTISSLQPEDFATYYCQQYDSYSPTFGQGTKVEIKR
notes: Germlined human IgG1 with leucines 234 and 235 changed to alanines, kappa; also called antibody 9556
- hemolysis of rabbit red blood cells, 10% human or cynomolgus serum, IC50 [5]: ≤ 50 nM
- inhibition of C3a and C5a generation during hemolysis, IC50 [5]: ≤ 50 nM
